The values that follow come from paper PMC5823869.

The test concerns the target YAP2L/TAZ in cells. Description: non-reducing SDS-PAGE with immunoblot; cell lysates (15 µg of transfected HEK293; 30 µg of H460 for endogenous TAZ) in SDS sample buffer without DTT, 3 min at 60 °C; blot with anti-FLAG, anti-HA or anti-TAZ; series with increasing DTT run beside.

With YAP2L/TAZ in cells, the percent of the total protein that is dimer is 20 to 30%.
